Literature values in PMC6451932.

Target: fibrinogen β peptide (Fgβ) (Homo sapiens) (UniProt P02675)

SdrG (from UniProt Q9KI13)
Kd: 300 nM
